The text below walks through data of patent publication US20250296984A1, “THERAPEUTIC AND DIAGNOSTIC AGENTS AND USES THEREOF” (priority 2022, published 2025).

A value given as a limit tells only on which side of the number the result lay.

Test [1] deals with T1, US28 protein on CHO-US28-A1 cells (Human cytomegalovirus, UniProt P69332, D170N/D19A).
T1 construct: expressed in transfected cells; host or cells: CHO-K1 (vector pCDH-EF1a-MCS)
In words: Flow cytometry (FACS) surface binding to CHO-US28-A1 cells. Also noted: species or system human cytomegalovirus (HCMV). The conditions noted are these: recombinant antibody (rAb), FIG. 7. The source says: FIG. 2. Flowcytometry analysis showing surface binding of the US28-13-5G6-1D3 antibody clone on CHO-US28-A1 cells. From the left, blank control, 2nd antibody control and clone US28-13-5G6-1D3 Ab binding on the surface of the CHO-US28-A1 cells.
FIG. 3. The positive surface binding of the clone US28-13-5G6-1D3 on CHO-US28-A1 cells was further validated by gradient dilution in FACS analysis. From the left, the clone US28-13-5G6-1D3 Ab surface binding to the CHO-US28-A1 cells in dilutions 1:20, 1:50, 1:200 (w/v).
FIG. 4. The positive surface binding of the clone US28-13-5G6-1D3 on CHO-US28-A1 cells was compared with the US28 negative CHO control cells. The clone US28-13-5G6-1D3 Ab bound 15-fold more to the surface of the US28 positive CHO-US28-A1 cells than to the US28 negative CHO cells in 1:50 (w/v).
FIG. 7. […] The surface binding of the 13-5G6-1D3 rAb to CHO cells was only measured in 1:10 dilution (w/v) and was 0.77% after removing the binding to blank and anti-mouse IgG-Alexa 488 secondary Ab controls. […]
In a further embodiment, it is preferred that a binding molecule of the present invention binds preferentially to US28-expressing cells (such as CHO cells engineered to express US28) compared to its binding of US28-negative cells (such as wildtype CHO cells), for example, at a 1:50 (w/v) dilution, for example as determined by flow cytometry assay. […]
Background: Flow cytometry measures light scatter and fluorescence of single cells or particles in a stream.

In test [2] the test system is HCMV infected human lung tissue. The experiment in a line: Immunohistochemistry (IHC) on HCMV infected human lung tissue and controls. Particulars: HCMV positive control slide, FIG. 12. How it is done:
Cytomegalovirus (CMV) control slides containing CMV positive lung tissue and CMV negative myometrium (product number #3240A) were obtained from Newcomer Supply Inc., Middleton, WI 53562-2579, USA. Tissue micro-arrays (TMAs) were obtained from US Biomax Inc., Derwood, MD 20855, USA, and included tumor tissues #BR1008b, #BS17016c, #BCN721b and normal tissues #FDA662a and heart tissues #HEN241a.
The paraffin sections were sequentially immersed into a. 100% xylene three times (5 min each); b. 100% ethanol twice (2 min each); c. 95% ethanol twice (2 min each). The slides were rinsed twice in water for 5 min to remove ethanol. […], the slides were immersed in 3% H2O2 for 5 minutes and washed thereafter twice (2×) with distilled water. The slides were then immersed in the working citrate buffer (pH 6.0) and covered with a lid. The buffer was heated in the microwave until it had boiled, and then kept in the steamer for 15 min.
The sections were cooled at room temperature for 30 min and washed with PBS. 5% BSA blocking solution was then added to the HIER treated samples and they were incubated at 37° C. for 30 min. […] Digitized pictures were taken by Olympus VS120 scanner and analyzed by using OlyVia 3.2 software (Olympus Corporation, 20101 Tokyo, Japan) by senior Pathologist.

Test [3] relates to human primary adrenal cortical, kidney epithelial, cardiac microvascular endothelial, liver epithelial and vein smooth muscle cells. The experiment in a line: Flow cytometry off-target surface binding to human primary cells. Particulars: all five cell types, PE-labelled antibody. How it is done: FIG. 19. A. Flowcytometry analysis with the 28-13-5G6-1D3-PE antibody were conducted on various human primary cells to exclude general off-target binding to the surface of these cell types. The following cell lines were studied: human primary adrenal cortical cells, human primary kidney epithelial cells, human primary cardiac microvascular endothelial cells, human primary liver epithelial cells and human primary vein smooth muscle cells. […] B. Original human primary cardiac cells were not available, and human cardiac tissue samples were therefore studied for staining of 13-5G6-1D3 by immunohistochemistry. […] If there were HCMV infections present in the human heart, they were always of productive infection type. […] The positive 13-5G6-1D3 and HCMV ISH results are marked with arrows in the figure. A colour version of FIG. 19 is also provided.

B1: 13-5G6-1D3 rAb: recombinant antibody product of US28-13-5G6-1D3 produced in HEK293-F cells (antibody)
heavy: EVKLVESGGGLVQPGGSLRLACATSGFTFTDYYMSWVRQPPGKALEWLGFIRSKANGYTTEYSASVKGRFTISRDNSQSILYLQMNTLRSEDSATYYCARDERRTAWLAYWGQGTLVTVSAAKTTPPSVYPLAPGSAAQTNSMVTLGCLVKGYFPEPVTVTWNSGSLSSGVHTFPAVLQSDLYTLSSSVTVPSSTWPSETVTCNVAHPASSTKVDKKIVPRDCGCKPCICTVPEVSSVFIFPPKPKDVLTITLTPKVTCVVVDISKDDPEVQFSWFVDDVEVHTAQTQPREEQFNSTFRSVSELPIMHQDWLNGKEFKCRVNSAAFPAPIEKTISKTKGRPKAPQVYTIPPPKEQMAKDKVSLTCMITDFFPEDITVEWQWNGQPAENYKNTQPIMDTDGSYFIYSKLNVQKSNWEAGNTFTCSVLHEGLHNHHTEKSLSHSPGK
light: DVLMTQTPLSLPVSLGDQASISCRSSQSIVHSNGNTYLDWYLQKPGQSPKLLIYKVSNRFSGVPDRFSGSGSGTDFTLKISRVEAEDLGVYYCFQGSHVPTWTFGGGTKLEIKRADAAPTVSIFPPSSEQLTSGGASVVCFLNNFYPKDINVKWKIDGSERQNGVLNSWTDQDSKDSTYSMSSTLTLTKDEYERHNSYTCEATHKTSTSPIVKSFNRNEC
For the molecule B1, in test [1], the “fold more surface binding on CHO-US28-A1 cells than to normal CHO cells” value was more than 21 fold. Besides, the “IHC staining of HCMV infected cells in lung tissue” value in test [2] is “strong cytoplasmic staining”.

B2: 13-5G6-1D3: mouse monoclonal IgG1 kappa antibody against US28 ECD3; VH SEQ ID NO: 12, VL SEQ ID NO: 18 (antibody, V domains shown)
VH: EVKLVESGGGLVQPGGSLRLACATSGFTFTDYYMSWVRQPPGKALEWLGFIRSKANGYTTEYSASVKGRFTISRDNSQSILYLQMNTLRSEDSATYYCARDERRTAWLAYWGQGTLVTVSA
VL: DVLMTQTPLSLPVSLGDQASISCRSSQSIVHSNGNTYLDWYLQKPGQSPKLLIYKVSNRFSGVPDRFSGSGSGTDFTLKISRVEAEDLGVYYCFQGSHVPTWTFGGGTKLEIK
modifications: Mature form of VH sequence of 1D3, without the leader sequence; Mature form of VL sequence of 1D3, without the leader sequence
For B2, the “surface binding to human primary cells” value in test [3] is given as less than 1%.
